Here are results for 1 substance from PMC8476707.

Values joined by “and” are separate entries in the source; they are usually repeats but may differ in a detail not shown here. Equal values may be shown once.

The target in the experiment is empty AAV8 capsid (recombinant adeno-associated virus serotype 8, no genome) (adeno-associated virus 8 (AAV8)) (UniProt Q8JQF8). As to the kind of experiment: native MS; charge detection mass spectrometry (CDMS) of single ions; nanoelectrospray from 200 mM ammonium acetate pH 7.5 after exchange on Micro Bio-Spin columns; 100 ms trapping time; charge versus mass scatterplot; capsid with capsid (multimers of whole particles).

Take “empty AAV8 capsid (recombinant adeno-associated virus serotype 8, no genome) (from UniProt Q8JQF8 1-738) (complex)”: the percent of ions that are capsid dimers came out at 3.8%; the percent of ions that are capsid trimers amounted to 0.8%; the stoichiometry N was 2 and 3.

As usually defined, the stoichiometry N is a count of units in the complex or per binding partner.
